From patent publication US7842460 come the findings set out here.

Data set [1] has as its target T1, Ubiquitin-PLA2mX fusion, Q9QXX3.
T1 chain: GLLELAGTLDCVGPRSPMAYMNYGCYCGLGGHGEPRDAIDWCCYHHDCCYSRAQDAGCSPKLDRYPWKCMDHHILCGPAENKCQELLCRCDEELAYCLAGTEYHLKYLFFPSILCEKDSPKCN

The target of data set [2] is human SUMO3-PLA2mX fusion, P55854.
Data set [3] deals with T2, Smt3-3Dpol (Mahoney strain) fusion from pET24-6H-SUMO-3Dpol, P03300.
T2 chain: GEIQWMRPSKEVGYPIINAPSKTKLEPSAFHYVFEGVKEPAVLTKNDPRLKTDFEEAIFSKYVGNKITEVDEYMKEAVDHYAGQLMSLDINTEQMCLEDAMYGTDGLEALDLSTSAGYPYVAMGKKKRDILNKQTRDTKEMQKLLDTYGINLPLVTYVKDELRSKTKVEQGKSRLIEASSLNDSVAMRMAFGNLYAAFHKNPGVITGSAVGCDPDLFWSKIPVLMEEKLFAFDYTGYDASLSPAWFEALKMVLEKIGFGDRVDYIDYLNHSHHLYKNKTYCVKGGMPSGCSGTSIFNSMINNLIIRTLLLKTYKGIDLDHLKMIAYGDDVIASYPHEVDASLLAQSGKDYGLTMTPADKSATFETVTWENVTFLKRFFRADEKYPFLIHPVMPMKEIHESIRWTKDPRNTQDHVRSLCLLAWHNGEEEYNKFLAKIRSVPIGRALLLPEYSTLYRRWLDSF

Data set [4] addresses T3, (yeast SUMO) Smt3-PLA2mX fusion, Q9QXX3.
T3 chain: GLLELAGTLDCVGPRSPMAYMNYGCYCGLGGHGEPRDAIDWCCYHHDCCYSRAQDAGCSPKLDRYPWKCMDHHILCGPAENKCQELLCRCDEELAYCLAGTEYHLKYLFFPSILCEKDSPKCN

Data set [5] concerns the target Smt3-tryptase (6xHis-SUMO-human tryptase fusion, secreted from Sf9 insect cells) [SUMO: Q12306].
The target in data set [6] is T4, SUMO-GPATase fusion protein from pET24-6H-SUMO-GPATase, P0AG16.
T4 chain: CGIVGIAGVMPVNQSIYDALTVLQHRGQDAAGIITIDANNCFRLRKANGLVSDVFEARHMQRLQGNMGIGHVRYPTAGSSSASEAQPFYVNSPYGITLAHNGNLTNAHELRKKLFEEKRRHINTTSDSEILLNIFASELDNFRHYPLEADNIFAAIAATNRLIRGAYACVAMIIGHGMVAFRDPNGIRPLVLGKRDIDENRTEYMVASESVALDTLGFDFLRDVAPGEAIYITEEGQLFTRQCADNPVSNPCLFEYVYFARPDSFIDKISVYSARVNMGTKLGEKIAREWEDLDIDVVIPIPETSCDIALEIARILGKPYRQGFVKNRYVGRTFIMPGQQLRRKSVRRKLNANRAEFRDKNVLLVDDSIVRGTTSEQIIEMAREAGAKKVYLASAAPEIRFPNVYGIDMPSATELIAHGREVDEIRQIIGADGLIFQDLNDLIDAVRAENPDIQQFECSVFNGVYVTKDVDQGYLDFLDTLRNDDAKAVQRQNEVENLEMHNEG

Data set [7] deals with human Nedd8-PLA2mX fusion, Q15843.
Sequence of human Nedd8-PLA2mX fusion, Q15843 (Q15843 whole entry, looked up, the tested form may be a part): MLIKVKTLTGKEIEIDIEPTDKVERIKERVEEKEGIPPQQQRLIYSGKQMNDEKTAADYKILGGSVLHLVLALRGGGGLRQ

Sequence of Smt3-tryptase (6xHis-SUMO-human tryptase fusion, secreted from Sf9 insect cells) [SUMO: Q12306] (Q12306 whole entry, looked up, the tested form may be a part): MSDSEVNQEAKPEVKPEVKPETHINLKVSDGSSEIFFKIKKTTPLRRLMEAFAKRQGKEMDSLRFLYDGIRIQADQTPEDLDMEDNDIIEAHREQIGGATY

B1: SENP2 isopeptidase (protein)
chain: DLLELTEDMEKEISNALGHGPQDEILSSAFKLRITRGDIQTLKNYHWLNDEVINFYMNLLVERNKKQGYPALHVFSTFFYPKLKSGGYQAVKRWTKGVNLFEQEIILVPIHRKVHWSLVVIDLRKKCLKYLDSMGQKGHRICEILLQYLQDESKTKRNSDLNLLEWTHHSMKPHEIPQQLNGSDCGMFTCKYADYISRDKPITFTQHQMPLFRKKMVWEILHQQLL
Take B1: in data set [1], the “cleavage of the fusion by SDS-PAGE” value was “The SENP2 enzyme failed to cleave the Ubiqutin-PLA2mX fusion protein”. For the same protein, in data set [2], the Ratio of PLA2 activity, fusion with isopeptidase over fusion without was found to be 9.95; the “cleavage of the fusion by SDS-PAGE (10 ug fusion, 1 ug SENP2)” value is “the appropriately sized hSUMO3 (21 kDa) and PLA2mX (14 kDa) bands were observed, indicating complete cleavage of the fusion protein”.

B2: C-terminal His-tagged SUMO protease 1, ULP1 (403-621)p (protein)
chain: LVPELNEKDDDQVQKALASRENTQLMNRDNIEITVRDFKTLAPRRWLNDTIIEFFMKYIEKSTPNTVAFNSFFYTNLSERGYQGVRRWMKRKKTQIDKLDKIFTPINLNQSHWALGIIDLKKKTIGYVDSLSNGPNAMSFAILTDLQKYVMEESKHTIGEDFDLIHLDCPQQPNGYDCGIYVCMNTLYGSADAPLDFDYKDAIRMRRFIAHLILTDALK
As to B2, the “cleavage of the fusion by SDS-PAGE” value in data set [1] is “The yeast ULP1 enzyme failed to cleave the Ubiquitin-PLA2mX fusion protein”. Also, the “cleavage of the fusion by SDS-PAGE and Coomassie Blue staining” value in data set [3] is “resulted in 100% of cleavage of 3Dpol”. Moreover, in data set [4], the Ratio of PLA2 activity, fusion with isopeptidase over fusion without turned out to be 7.04; the “cleavage of the fusion by SDS-PAGE (10 ug fusion, 1 ug Ulp-1, one hour)” value is “complete cleavage of the reporter fusion protein to yield the separate constituents, Smt3 (at 21 kDa) and 14 kDa PLA2mX”. Moreover, in data set [5], the “tryptase activity, peptidyl chromogenic substrate, absorption at 410 nm” value was “augmented tryptase activity was measured”. For the same protein, in data set [6], the “GPATase activity by coupled glutamate dehydrogenase assay, absorbance at 363 nm” value is given as “there was an increase is absorbance at the OD 363 reading ... In the absence of Ulp1, this increase of absorbance did not occur” and the “glutaminase activity of GPATase (coupled GDH assay)” value is reported as “at least a 10-fold increase in the glutaminase activity of GPATase”.

B3: Den1, a Nedd8-specific isopeptidase (protein)
chain: MDPVVLSYMDSLLRQSDVSLLDPPSWLNDHIIGFAFEYFANSQFHDCSDHVSFISPEVTQFIKCTSNPAEIAMFLEPLDLPNKRVVFLAINDNSNQAAGGTHWSLLVYLQDKNSFFHYDSHSRSNSVHAKQVAEKLEAFLGRKGDKLAFVEEKAPAQQNSYDCGMYVICNTEALCQNFFRQQTESLLQLLTPAYITKKRGEWKDLITTLAKK
With B3, in data set [7], the Ratio of PLA2 activity, fusion with isopeptidase over fusion without was determined as 3.38; the “cleavage of the fusion by SDS-PAGE” value was “the Nedd8-fusion protein became cleaved and 14 kDa PLA2mX and 9 kDa Nedd8 bands appear”.
